Among the data in the Immune Epitope Database (IEDB) are Kd values, retold here.

The target of one assay is HLA-A*69:01. Briefly: IEDB peptide-MHC binding, purified MHC/direct/fluorescence; filed as Kd, often an IC50 or EC50 that approximates it; ≥ and ≤ were set here for values at or beyond the usual limits of such assays.
A further assay concerns the target HLA-C*03:03. The assay is described as above.
Assay [1] addresses HLA-A*01:01. The assay is described as above. Conditions: source organism: Francisella tularensis subsp. holarctica LVS.
For assay [2], the target named is HLA-A*02:01. Described as above.
The next assay has as its target HLA-A*11:01. The description is as above. Conditions: source organism: Francisella tularensis subsp. holarctica LVS.
In assay [3] the target is HLA-A*26:01. Described as above. As to conditions: source organism: Francisella tularensis subsp. tularensis FSC033.
The target of the next assay is HLA-A*31:01. Described as above. Conditions: source organism: Francisella tularensis subsp. holarctica LVS.
In a further assay the target is HLA-A*68:02. The description is as above. Conditions: source organism: Francisella tularensis subsp. holarctica LVS.
The target in another assay is HLA-B*08:01. The assay is described as above. As to conditions: source organism: Francisella tularensis subsp. holarctica LVS.
For a further assay, the target named is HLA-B*08:03. The description is as above. Conditions: source organism: Francisella tularensis subsp. tularensis FSC033.
Assay [4] concerns the target HLA-B*18:01. Described as above. As to conditions: source organism: Francisella tularensis subsp. holarctica LVS.
The target in assay [5] is HLA-B*57:01. Described as above. As to conditions: source organism: Francisella tularensis subsp. holarctica LVS.
For the next assay, the target named is HLA-B*58:01. Described as above. As to conditions: source organism: Francisella tularensis subsp. holarctica LVS.
Another assay addresses HLA-A*02:03. Briefly: IEDB peptide-MHC binding, purified MHC/competitive/fluorescence; filed as Kd, often an IC50 or EC50 that approximates it; ≥ and ≤ were set here for values at or beyond the usual limits of such assays. Conditions: source organism: Francisella tularensis subsp. tularensis FSC198.
A further assay addresses HLA-A*26:02. Described as above. As to conditions: source organism: Francisella tularensis subsp. tularensis FSC198.
A further assay addresses HLA-A*30:01. The description is as above. Conditions: source organism: Francisella tularensis subsp. tularensis FSC198.
For a further assay, the target named is HLA-B*07:02. The description is as above.
For a further assay, the target named is HLA-B*15:01. Described as above.
For a further assay, the target named is HLA-B*15:02. The description is as above.
Assay [6] addresses HLA-A*02:01. Described as above. Conditions: source organism: Vaccinia virus WR.
In the next assay the target is HLA-A*02:11. Briefly: IEDB peptide-MHC binding, purified MHC/direct/fluorescence; filed as Kd, often an IC50 or EC50 that approximates it; ≥ and ≤ were set here for values at or beyond the usual limits of such assays. Conditions: source organism: Hantaan virus Q32.
A further assay has as its target HLA-A*02:12. Described as above. As to conditions: source organism: Hantaan virus Q32.
The target of another assay is HLA-A*02:19. The description is as above. As to conditions: source organism: Hantaan virus Q32.
The target of the next assay is HLA-C*07:02. Described as above.
A further assay concerns the target HLA-B*27:05. Briefly: IEDB peptide-MHC binding, purified MHC/competitive/fluorescence; filed as Kd, often an IC50 or EC50 that approximates it; ≥ and ≤ were set here for values at or beyond the usual limits of such assays.
A further assay addresses HLA-C*05:01. As to the kind of experiment: IEDB peptide-MHC binding, purified MHC/direct/fluorescence; filed as Kd, often an IC50 or EC50 that approximates it; ≥ and ≤ were set here for values at or beyond the usual limits of such assays.
The target of a further assay is HLA-B*35:01. Briefly: IEDB peptide-MHC binding, purified MHC/competitive/fluorescence; filed as Kd, often an IC50 or EC50 that approximates it; ≥ and ≤ were set here for values at or beyond the usual limits of such assays. Conditions: source organism: Influenza A virus (A/Kayano/57(H2N2)).
The target in the next assay is HLA-B*51:01. Described as above.
In assay [7] the target is HLA-A*26:01. The assay is described as above. Conditions: source organism: Homo sapiens.
The target in assay [8] is HLA-B*18:01. The description is as above. Conditions: source organism: Homo sapiens.
In a further assay the target is HLA-B*27:03. Described as above. Conditions: source organism: Homo sapiens.
For the next assay, the target named is HLA-B*39:01. Described as above. Conditions: source organism: Homo sapiens.
For another assay, the target named is HLA-B*46:01. The assay is described as above. As to conditions: source organism: Homo sapiens.
In assay [9] the target is HLA-B*57:01. The description is as above. Conditions: source organism: Homo sapiens.
In the next assay the target is HLA-B*48:01. The description is as above.
For the next assay, the target named is HLA-A*68:23. The description is as above.
For the next assay, the target named is HLA-B*15:42. The description is as above.
The target of the next assay is HLA-B*45:06. The assay is described as above.
The target in a further assay is HLA-B*83:01. The description is as above.
In a further assay the target is HLA-C*14:02. Described as above.
The target in assay [10] is HLA-A*01:01. Described as above. Conditions: source organism: Staphylococcus aureus subsp. aureus N315.
Setting [11] is: source organism: Francisella tularensis subsp. holarctica LVS.
Where [12] appears, read: source organism: Francisella tularensis subsp. tularensis FSC198.
Where [13] appears, read: source organism: Influenza A virus (A/Kayano/57(H2N2)).
[14] abbreviates: source organism: Staphylococcus aureus subsp. aureus N315.

Consider ALMDYGFRV, for which the Kd in the assay with HLA-A*69:01 (source organism: Mycobacterium tuberculosis) was 0.042 µM; with HLA-C*03:03 (source organism: Mycobacterium tuberculosis variant bovis BCG str. Pasteur 1173P2) it was no less than 20 µM.

For EFKRRLKDL, the Kd with HLA-A*01:01 [1], in the assay with HLA-A*02:01 [2] (setting [11]), with HLA-A*11:01, in the assay with HLA-A*26:01 [3], in the assay with HLA-A*31:01 and with HLA-A*68:02 was no less than 20 µM in each case. Besides, the Kd with HLA-A*69:01 (setting [11]) is no less than 20 µM; with HLA-B*08:01, 0.0523 µM; in the assay with HLA-B*08:03 it was no less than 20 µM; in the assay with HLA-B*18:01 [4], no less than 20 µM; in the assay with HLA-B*57:01 [5], no less than 20 µM; with HLA-B*58:01 it was no less than 20 µM. In addition, the Kd with HLA-A*02:03, with HLA-A*26:02, in the assay with HLA-A*30:01, in the assay with HLA-B*07:02 (setting [12]) and with HLA-B*15:01 (setting [12]) was no less than 20 µM each time.

As for EQRAGYQAF, in the assay with HLA-B*15:02 (source organism: Vibrio vulnificus YJ016), the Kd was determined as 0.117 µM.

For FLHESDPMV, the results for the Kd in the assay with HLA-C*03:03 (source organism: Vaccinia virus WR) and in the assay with HLA-A*02:01 [6] were no less than 20 µM and 0.0017 µM, respectively.

Take FMFNDLLKL: the Kd with HLA-A*02:01 [2] (source organism: Orthohantavirus hantanense) is no more than 0.001 µM; with HLA-A*02:11, no more than 0.001 µM; in the assay with HLA-A*02:12, 0.003 µM; in the assay with HLA-A*02:19, 0.015 µM; with HLA-C*03:03 (source organism: Orthohantavirus) it was 1.25 µM.

In the assay with HLA-C*07:02 (source organism: Acanthisitta chloris), HYNAFQWAI registered a Kd of 0.029 µM.

Regarding KRMGVQVQR, the Kd with HLA-B*27:05 (source organism: Influenza A virus (A/environment/Hong Kong/437-10/99 (H5N1))) was 0.0998 µM.

Turning to LPFHNVHPL, the Kd with HLA-C*05:01 (setting [13]) was no less than 20 µM; with HLA-C*07:02 (setting [13]) it was 2.49 µM; with HLA-B*07:02 (setting [13]), 0.0056 µM; in the assay with HLA-B*35:01, no more than 0.0001 µM; with HLA-B*51:01 (setting [13]), 0.203 µM.

As to LRAAIELPL, in the assay with HLA-B*27:05 (source organism: Mycobacterium tuberculosis H37Ra), the Kd is 0.16 µM. That is a sub-micromolar value.

For LTDSSTLLV, the Kd was 0.008 µM with HLA-C*05:01 (source organism: Homo sapiens); no less than 20 µM with HLA-A*26:01 [7]; no less than 20 µM in the assay with HLA-B*15:01 (source organism: Homo sapiens); no less than 20 µM in the assay with HLA-B*18:01 [8]; no less than 20 µM with HLA-B*27:03; no less than 20 µM with HLA-B*39:01. Besides, the dissociation constant Kd with HLA-B*46:01, with HLA-B*51:01 (source organism: Homo sapiens) and with HLA-B*57:01 [9] was no less than 20 µM throughout.

Regarding MQALGHPIL, in the assay with HLA-B*48:01 (source organism: Photobacterium angustum S14), the Kd was determined as 0.175 µM.

Consider RLPKDFVDL, for which the Kd with HLA-A*68:23 (source organism: Homo sapiens) is 0.0677 µM; in the assay with HLA-B*15:42 (source organism: Homo sapiens) it was no less than 5 µM; with HLA-B*45:06 (source organism: Homo sapiens), no less than 5 µM; in the assay with HLA-B*83:01 (source organism: Homo sapiens) it was no less than 5 µM; in the assay with HLA-C*14:02 (source organism: Homo sapiens), 0.112 µM.

Sequence SQDDNYFTL displayed a Kd with HLA-C*03:03 (source organism: Giardia lamblia P15) of 0.266 µM. This counts as sub-micromolar.

Consider SQMPTSLNF, for which the Kd with HLA-B*15:02 (source organism: Escherichia coli str. K-12 substr. MG1655) was 0.0238 µM.

As for VQHAPQVSL, in the assay with HLA-B*48:01 (source organism: Giardia lamblia ATCC 50803), the Kd is 0.137 µM. That is a sub-micromolar value.

Take WLVNTYQNY: the Kd with HLA-B*15:02 (source organism: Cryptosporidium parvum) stood at 0.0802 µM.

For the sequence YGLERLAAM, the Kd with HLA-C*07:02 (source organism: human gammaherpesvirus 4) came out at 0.018 µM.

For YTIGIGAFY, the Kd is 0.0015 µM with HLA-A*01:01 [10]; no more than 0.0001 µM with HLA-A*68:23 (setting [14]); no less than 5 µM in the assay with HLA-B*15:42 (setting [14]); no less than 5 µM with HLA-B*45:06 (setting [14]); no less than 5 µM with HLA-B*83:01 (setting [14]); 0.0094 µM with HLA-C*14:02 (setting [14]).
